{
  "source": "patent US20230192865A1",
  "binders": {"B1": {"name": "254# nano antibody (SEQ ID NO: 3) (VHH, not shown: a dimerising Fc or GST; small tags and cut ends)", "VHH": "EVQLQASGGGFVQPGGSLRLSCAASGFTFSSFAMGWFRQAPGKEREFVSAISSGGGNTYYADSVKGRFTISRDNSKNTVYLQMNSLRAEDTATYYCVTPGGRLWYYRYDYRCQGTQVTVSS"}, "B2": {"name": "225# nano antibody (SEQ ID NO: 4) (VHH, not shown: a dimerising Fc or GST; small tags and cut ends)", "VHH": "B1 VHH with F32Y, F47L"}},
  "key": {"[1]": {"biological_target": "T1, Galectin-10 protein with His tag (expressed and purified with pk277) (Homo sapiens (Human)) (UniProt Q05315)", "T1 sequence": "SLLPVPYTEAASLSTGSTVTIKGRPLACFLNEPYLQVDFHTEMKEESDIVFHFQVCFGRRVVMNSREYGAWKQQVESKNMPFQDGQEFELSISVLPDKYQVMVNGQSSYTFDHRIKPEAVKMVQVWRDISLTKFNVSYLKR", "experiment": "ELISA on coated His-tagged Galectin-10, anti-GST detection"}, "[2]": {"biological_target": "T1, Galectin-10 protein with His tag (expressed and purified with pk277) (Homo sapiens (Human))", "experiment": "ELISA, His-tagged Galectin-10 coated at 125 ng/mL, 254# diluted 1:200, anti-GST mouse antibody and HRP goat anti-mouse, average"}, "[3]": {"biological_target": "T1, Galectin-10 protein with His tag (expressed and purified with pk277) (Homo sapiens (Human))", "experiment": "ELISA, His-tagged Galectin-10 coated at 500 ng/mL, 254# diluted 1:200, anti-GST mouse antibody and HRP goat anti-mouse, average"}, "[4]": {"biological_target": "T1, Galectin-10 protein with His tag (expressed and purified with pk277) (Homo sapiens (Human))", "experiment": "ELISA, His-tagged Galectin-10 coated at 125 ng/mL, 254# diluted 1:200, anti-GST mouse antibody and HRP goat anti-mouse, repeat 1"}, "[5]": {"biological_target": "T1, Galectin-10 protein with His tag (expressed and purified with pk277) (Homo sapiens (Human))", "experiment": "ELISA, His-tagged Galectin-10 coated at 125 ng/mL, 254# diluted 1:200, anti-GST mouse antibody and HRP goat anti-mouse, repeat 2"}, "[6]": {"biological_target": "T1, Galectin-10 protein with His tag (expressed and purified with pk277) (Homo sapiens (Human))", "experiment": "ELISA, His-tagged Galectin-10 coated at 125 ng/mL, 254# diluted 1:200, anti-GST mouse antibody and HRP goat anti-mouse, repeat 3"}, "[7]": {"biological_target": "T1, Galectin-10 protein with His tag (expressed and purified with pk277) (Homo sapiens (Human))", "experiment": "ELISA, His-tagged Galectin-10 coated at 2500 ng/mL, 254# diluted 1:200, anti-GST mouse antibody and HRP goat anti-mouse, average"}, "[8]": {"biological_target": "T1, Galectin-10 protein with His tag (expressed and purified with pk277) (Homo sapiens (Human))", "experiment": "ELISA, His-tagged Galectin-10 coated at 500 ng/mL, 254# diluted 1:200, anti-GST mouse antibody and HRP goat anti-mouse, repeat 1"}, "[9]": {"biological_target": "T1, Galectin-10 protein with His tag (expressed and purified with pk277) (Homo sapiens (Human))", "experiment": "ELISA, His-tagged Galectin-10 coated at 500 ng/mL, 254# diluted 1:200, anti-GST mouse antibody and HRP goat anti-mouse, repeat 2"}, "[10]": {"biological_target": "T1, Galectin-10 protein with His tag (expressed and purified with pk277) (Homo sapiens (Human))", "experiment": "ELISA, His-tagged Galectin-10 coated at 500 ng/mL, 254# diluted 1:200, anti-GST mouse antibody and HRP goat anti-mouse, repeat 3"}, "[11]": {"biological_target": "T1, Galectin-10 protein with His tag (expressed and purified with pk277) (Homo sapiens (Human))", "experiment": "ELISA, His-tagged Galectin-10 coated at 2500 ng/mL, 254# diluted 1:200, anti-GST mouse antibody and HRP goat anti-mouse, repeat 1"}, "[12]": {"biological_target": "T1, Galectin-10 protein with His tag (expressed and purified with pk277) (Homo sapiens (Human))", "experiment": "ELISA, His-tagged Galectin-10 coated at 2500 ng/mL, 254# diluted 1:200, anti-GST mouse antibody and HRP goat anti-mouse, repeat 2"}, "[13]": {"biological_target": "T1, Galectin-10 protein with His tag (expressed and purified with pk277) (Homo sapiens (Human))", "experiment": "ELISA, His-tagged Galectin-10 coated at 2500 ng/mL, 254# diluted 1:200, anti-GST mouse antibody and HRP goat anti-mouse, repeat 3"}, "[14]": {"biological_target": "T1, Galectin-10 protein with His tag (expressed and purified with pk277) (Homo sapiens (Human))", "experiment": "ELISA, His-tagged Galectin-10 coated at 125 ng/mL, 225# diluted 1:200, anti-GST mouse antibody and HRP goat anti-mouse, average"}, "[15]": {"biological_target": "T1, Galectin-10 protein with His tag (expressed and purified with pk277) (Homo sapiens (Human))", "experiment": "ELISA, His-tagged Galectin-10 coated at 500 ng/mL, 225# diluted 1:200, anti-GST mouse antibody and HRP goat anti-mouse, average"}, "[16]": {"biological_target": "T1, Galectin-10 protein with His tag (expressed and purified with pk277) (Homo sapiens (Human))", "experiment": "ELISA, His-tagged Galectin-10 coated at 125 ng/mL, 225# diluted 1:200, anti-GST mouse antibody and HRP goat anti-mouse, repeat 1"}, "[17]": {"biological_target": "T1, Galectin-10 protein with His tag (expressed and purified with pk277) (Homo sapiens (Human))", "experiment": "ELISA, His-tagged Galectin-10 coated at 125 ng/mL, 225# diluted 1:200, anti-GST mouse antibody and HRP goat anti-mouse, repeat 2"}, "[18]": {"biological_target": "T1, Galectin-10 protein with His tag (expressed and purified with pk277) (Homo sapiens (Human))", "experiment": "ELISA, His-tagged Galectin-10 coated at 125 ng/mL, 225# diluted 1:200, anti-GST mouse antibody and HRP goat anti-mouse, repeat 3"}, "[19]": {"biological_target": "T1, Galectin-10 protein with His tag (expressed and purified with pk277) (Homo sapiens (Human))", "experiment": "ELISA, His-tagged Galectin-10 coated at 2500 ng/mL, 225# diluted 1:200, anti-GST mouse antibody and HRP goat anti-mouse, average"}, "[20]": {"biological_target": "T1, Galectin-10 protein with His tag (expressed and purified with pk277) (Homo sapiens (Human))", "experiment": "ELISA, His-tagged Galectin-10 coated at 500 ng/mL, 225# diluted 1:200, anti-GST mouse antibody and HRP goat anti-mouse, repeat 1"}, "[21]": {"biological_target": "T1, Galectin-10 protein with His tag (expressed and purified with pk277) (Homo sapiens (Human))", "experiment": "ELISA, His-tagged Galectin-10 coated at 500 ng/mL, 225# diluted 1:200, anti-GST mouse antibody and HRP goat anti-mouse, repeat 2"}, "[22]": {"biological_target": "T1, Galectin-10 protein with His tag (expressed and purified with pk277) (Homo sapiens (Human))", "experiment": "ELISA, His-tagged Galectin-10 coated at 500 ng/mL, 225# diluted 1:200, anti-GST mouse antibody and HRP goat anti-mouse, repeat 3"}, "[23]": {"biological_target": "T1, Galectin-10 protein with His tag (expressed and purified with pk277) (Homo sapiens (Human))", "experiment": "ELISA, His-tagged Galectin-10 coated at 2500 ng/mL, 225# diluted 1:200, anti-GST mouse antibody and HRP goat anti-mouse, repeat 1"}, "[24]": {"biological_target": "T1, Galectin-10 protein with His tag (expressed and purified with pk277) (Homo sapiens (Human))", "experiment": "ELISA, His-tagged Galectin-10 coated at 2500 ng/mL, 225# diluted 1:200, anti-GST mouse antibody and HRP goat anti-mouse, repeat 2"}, "[25]": {"biological_target": "T1, Galectin-10 protein with His tag (expressed and purified with pk277) (Homo sapiens (Human))", "experiment": "ELISA, His-tagged Galectin-10 coated at 2500 ng/mL, 225# diluted 1:200, anti-GST mouse antibody and HRP goat anti-mouse, repeat 3"}},
  "note": "Numbering of substitutions follows the chain as printed.",
  "data": [
    {"binder": "B1", "values": [
      {"measurement": "minimum test concentration", "setting": "[1]", "result": 125, "unit": "ng/mL"},
      {"measurement": "OD at 450 nm", "setting": "[2]", "result": 0.373, "unit": "OD450"},
      {"measurement": "OD at 450 nm", "setting": "[3]", "result": 0.581, "unit": "OD450"},
      {"measurement": "OD at 450 nm", "setting": "[4]", "result": 0.397, "unit": "OD450"},
      {"measurement": "OD at 450 nm", "setting": "[5]", "result": 0.353, "unit": "OD450"},
      {"measurement": "OD at 450 nm", "setting": "[6]", "result": 0.37, "unit": "OD450"},
      {"measurement": "OD at 450 nm", "setting": "[7]", "result": 1.28, "unit": "OD450"},
      {"measurement": "OD at 450 nm", "setting": "[8]", "result": 0.615, "unit": "OD450"},
      {"measurement": "OD at 450 nm", "setting": "[9]", "result": 0.551, "unit": "OD450"},
      {"measurement": "OD at 450 nm", "setting": "[10]", "result": 0.577, "unit": "OD450"},
      {"measurement": "OD at 450 nm", "setting": "[11]", "result": 1.32, "unit": "OD450"},
      {"measurement": "OD at 450 nm", "setting": "[12]", "result": 1.2, "unit": "OD450"},
      {"measurement": "OD at 450 nm", "setting": "[13]", "result": 1.34, "unit": "OD450"}
    ]},
    {"binder": "B2", "values": [
      {"measurement": "minimum test concentration", "setting": "[1]", "result": 125, "unit": "ng/mL"},
      {"measurement": "OD at 450 nm", "setting": "[14]", "result": 0.16, "unit": "OD450"},
      {"measurement": "OD at 450 nm", "setting": "[15]", "result": 0.265, "unit": "OD450"},
      {"measurement": "OD at 450 nm", "setting": "[16]", "result": 0.155, "unit": "OD450"},
      {"measurement": "OD at 450 nm", "setting": "[17]", "result": 0.153, "unit": "OD450"},
      {"measurement": "OD at 450 nm", "setting": "[18]", "result": 0.173, "unit": "OD450"},
      {"measurement": "OD at 450 nm", "setting": "[19]", "result": 0.707, "unit": "OD450"},
      {"measurement": "OD at 450 nm", "setting": "[20]", "result": 0.257, "unit": "OD450"},
      {"measurement": "OD at 450 nm", "setting": "[21]", "result": 0.26, "unit": "OD450"},
      {"measurement": "OD at 450 nm", "setting": "[22]", "result": 0.279, "unit": "OD450"},
      {"measurement": "OD at 450 nm", "setting": "[23]", "result": 0.74, "unit": "OD450"},
      {"measurement": "OD at 450 nm", "setting": "[24]", "result": 0.7, "unit": "OD450"},
      {"measurement": "OD at 450 nm", "setting": "[25]", "result": 0.681, "unit": "OD450"}
    ]}
  ]
}
